Reference: US20190194291A1 (Hoffmann-La Roche, published 2019)

T1: cyCD19 ECD (cynomolgus, UniProt A0A2K5W8L9 20-292)
T1 construct: extracellular domain; also called cynomolgus CD19 extracellular domain; cynomolgus CD19
T1 sequence: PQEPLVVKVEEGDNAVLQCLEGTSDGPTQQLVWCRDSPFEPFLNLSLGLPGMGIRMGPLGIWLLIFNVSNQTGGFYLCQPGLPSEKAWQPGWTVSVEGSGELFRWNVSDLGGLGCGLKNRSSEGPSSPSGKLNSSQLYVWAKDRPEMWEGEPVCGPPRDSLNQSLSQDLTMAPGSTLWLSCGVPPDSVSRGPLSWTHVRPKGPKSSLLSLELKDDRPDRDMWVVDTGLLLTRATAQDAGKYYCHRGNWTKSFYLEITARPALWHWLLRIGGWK

T2: human CD19 (antigen of Table 9, construct not stated) (human, UniProt P15391 20-291, limits assumed)
T2 sequence: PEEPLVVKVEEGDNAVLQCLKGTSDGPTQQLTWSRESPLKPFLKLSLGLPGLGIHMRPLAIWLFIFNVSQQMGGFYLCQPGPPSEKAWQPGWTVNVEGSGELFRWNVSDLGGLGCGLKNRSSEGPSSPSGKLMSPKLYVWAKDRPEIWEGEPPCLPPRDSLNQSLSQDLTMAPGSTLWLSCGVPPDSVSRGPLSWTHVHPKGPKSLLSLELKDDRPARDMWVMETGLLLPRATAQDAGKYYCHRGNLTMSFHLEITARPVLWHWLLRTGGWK

T3: huCD19 ECD (human, UniProt P15391 20-291)
T3 construct: also called human CD19 extracellular domain
T3 sequence: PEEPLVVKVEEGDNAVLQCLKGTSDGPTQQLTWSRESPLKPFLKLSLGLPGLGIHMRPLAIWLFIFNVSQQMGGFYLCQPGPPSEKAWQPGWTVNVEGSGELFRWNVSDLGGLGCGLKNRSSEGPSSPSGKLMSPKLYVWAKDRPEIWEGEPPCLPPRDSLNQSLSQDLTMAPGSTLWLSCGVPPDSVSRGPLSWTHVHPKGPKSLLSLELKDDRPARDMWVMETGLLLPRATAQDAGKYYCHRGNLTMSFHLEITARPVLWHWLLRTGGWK

T4: human CEA expressed on MKN45 cells (human, UniProt P06731 35-685)
T4 construct: also called CEA-expressing human gastric adenocarcinoma cells (MKN45)
T4 sequence: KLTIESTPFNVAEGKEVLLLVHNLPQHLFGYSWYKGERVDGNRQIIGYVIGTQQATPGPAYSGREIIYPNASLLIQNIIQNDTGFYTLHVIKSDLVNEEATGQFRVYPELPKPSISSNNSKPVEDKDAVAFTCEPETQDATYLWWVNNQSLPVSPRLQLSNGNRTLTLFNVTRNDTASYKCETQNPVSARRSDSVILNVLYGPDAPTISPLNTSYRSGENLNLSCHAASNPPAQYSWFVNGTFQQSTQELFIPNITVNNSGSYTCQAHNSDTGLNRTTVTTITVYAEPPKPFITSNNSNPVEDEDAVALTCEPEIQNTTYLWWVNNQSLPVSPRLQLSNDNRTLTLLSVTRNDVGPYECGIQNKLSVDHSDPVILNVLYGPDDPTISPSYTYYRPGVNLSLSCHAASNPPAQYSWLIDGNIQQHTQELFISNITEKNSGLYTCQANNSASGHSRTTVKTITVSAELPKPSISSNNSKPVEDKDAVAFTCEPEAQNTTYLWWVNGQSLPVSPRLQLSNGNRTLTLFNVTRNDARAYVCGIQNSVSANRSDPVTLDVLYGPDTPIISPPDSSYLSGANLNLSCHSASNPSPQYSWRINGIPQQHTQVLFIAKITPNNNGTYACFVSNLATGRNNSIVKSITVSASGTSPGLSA


What was measured:
cyCD19 ECD = biological target: T1, cyCD19 ECD; test: binding to CD19 ECD, method not stated
[1] = biological target: T5, monomeric human CD19 antigen Fc(kih) fusion molecule (human, UniProt P0DOX5 223-449 = IgG part); test: SPR (ProteOn XPR36): Fab from bacterial supernatant captured on anti-human Fab antibody, monomeric CD19-Fc 150-6 nM as analyte, 1:1 Langmuir fit
T5 construct: Heterodimeric Fc fusion with a single copy of the CD19 ectodomain; also called human CD19 Fc(kih); Recombinant human CD19
Protocol: In order to further characterize the ELISA-positive clones, the off-rate was measured by surface plasmon resonance and compared with the parental humanized clone 8B8.
For this experiment, 7000 RU of polyclonal anti-human Fab antibody were immobilized on all 6 channels of a GLM chip by Amine coupling (NaAcetate pH4.5, 25 μl/min, 240 s) (vertical orientation). Each antibody-containing bacterial supernatant was filtered and 2-fold diluted with PBS, and then injected for 360 s at 25 μl/minute to achieve immobilization levels of between 100 and 400 response units (RU) in vertical orientation. […] Regeneration was performed by two pulses of 10 mM glycine pH 1.5 and 50 mM NaOH for 30 s at 90 ul/min (horizontal orientation). Dissociation rate constants (koff) were calculated using a simple one-to-one Langmuir binding model in ProteOn Manager v3.1 software by simultaneously fitting the sensorgrams. […] The variable domains of the corresponding phagemids were sequenced.

[2] = biological target: T2, human CD19 (antigen of Table 9, …); test: listed under the BIAcore KD; taken as half-life of the complex
huCD19 ECD = biological target: T3, huCD19 ECD; test: binding to CD19 ECD, method not stated
[3] = biological target: T2, human CD19 (antigen of Table 9, …); test: BIAcore (SPR), format not stated
[4] = biological target: T4, human CEA expressed on MKN45 cells; test: flow cytometry on CEA-expressing MKN45 cells, PE anti-human IgG Fc detection
Protocol: The binding of different humanized variants of T84.66 IgG was tested on CEA-expressing human gastric adenocarcinoma cells (MKN45, DSMZ ACC 409).
Cells were harvested, counted, checked for viability and re-suspended at 2×10⁶ cells/ml in FACS buffer (100 μl PBS 0.1% BSA). […] Binding curves and EC50 values were obtained and calculated using GraphPadPrism5.

Row | Binder | EC50 (cyCD19 ECD) [µg/mL] | koff [1] [s⁻¹] | also measured
1 | wild-type humanized anti-human CD19 antibody 8B8 (antibody, V domains shown) VH: QVQLVQSGAEVKKPGASVKVSCKASGYTFTDYIMHWVRQAPGQGLEWMGYINPYNDGSKYTEKFNGRVTMTSDTSISTAYMELSRLRSDDTAVYYCARGTYYYGSALFDYWGQGTTVTVSS VL: DIVMTQTPLSLSVTPGQPASISCKSSQSLENSNGNTYLNWYLQKPGQSPQLLIYRVSKRFSGVPDRFSGSGSGTDFTLKISRVEAEDVGVYYCLQLTHVPYTFGQGTKLEIK | 0.313 |  | 
2 | parental humanized clone 8B8 (Fab in bacterial supernatant) (Fab, V domains shown, Soluble Fab with Flag tag from a phagemid, tested as bacterial supernatant; also called Parental 8B8; humanized parental clone 8B8) VH: QVQLVQSGAEVKKPGASVKVSCKASGYTFTDYIMHWVRQAPGQGLEWMGYINPYNDGSKYTEKFQGRVTMTSDTSISTAYMELSRLRSDDTAVYYCARGTYYYGSALFDYWGQGTTVTVSS VL: DIVMTQTPLSLSVTPGQPASISCKSSQSLENSNGNTYLNWYLQKPGQSPQLLIYRVSKRFSGVPDRFSGSGSGTDFTLKISRVEAEDVGVYYCLQLTHVPYTFGQGTKLEIK |  | 0.000301 | 
3 | humanized anti-human CD19 antibody clone 8B8-018 (antibody, V domains shown) VH: QVQLVQSGAEVKKPGASVKVSCKASGYTFTDYIMHWVRQAPGQGLEWMGYINPYNDGSKYTEKFQGRVTMTSDTSISTAYMELSRLRSDDTAVYYCARGTYYYGSALFDYWGQGTTVTVSS VL: DIVMTQTPLSLSVTPGQPASISCKSSQSLENPNGNTYLNWYLQKPGQSPQLLIYRVSKRFSGVPDRFSGSGSGTDFTLKISRVEAEDVGVYYCLQLTHVPYTFGQGTKLEIK | 0.255 |  | t1/2 [2]: 43.6 min; EC50 (huCD19 ECD): 0.084 µg/mL; Kd [3]: 6 nM
4 | affinity-matured 8B8-derived clone 2B11 (Fab in bacterial supernatant) (Fab, V domains shown, Soluble Fab with Flag tag, tested as bacterial supernatant; also called 8B8-2B11) VH: QVQLVQSGAEVKKPGASVKVSCKASGYTFTDYIMHWVRQAPGQGLEWMGYINPYNDGSKYTEKFQGRVTMTSDTSISTAYMELSRLRSDDTAVYYCARGTYYYGPQLFDYWGQGTTVTVSS VL: DIVMTQTPLSLSVTPGQPASISCKSSQSLETSTGTTYLNWYLQKPGQSPQLLIYRVSKRFSGVPDRFSGSGSGTDFTLKISRVEAEDVGVYYCLQLLEDPYTFGQGTKLEIK |  | 4.37e-06 | 
5 | Humanized variant 1 of T84.66 IgG (T84.66-LCHA) (antibody, V domains shown, Tested as IgG) VH: QVQLVQSGAEVKKPGSSVKVSCKASGFNIKDTYMHWVRQAPGQGLEWMGRIDPANGNSKYVPKFQGRVTITADTSTSTAYMELSSLRSEDTAVYYCAPFGYYVSDYAMAYWGQGTLVTVSS VL: EIVLTQSPATLSLSPGERATLSCRAGESVDIFGVGFLHWYQQKPGQAPRLLIYRASNRATGIPARFSGSGSGTDFTLTISSLEPEDFAVYYCQQTNEDPYTFGQGTKLEIK |  |  | EC50 [4]: 1.5 µg/mL
